Experimental data: publication PMC10397247
Read-outs that look alike come from different tables or passages of the source.

T1: 4H2586-bN
T1 chain: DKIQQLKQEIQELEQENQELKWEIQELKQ

T2: 4H2627-bN
T2 chain: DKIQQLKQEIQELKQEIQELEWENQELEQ

T3: 4H2673-bN
T3 chain: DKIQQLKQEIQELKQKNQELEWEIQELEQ

T4: 4H2702-bN
T4 chain: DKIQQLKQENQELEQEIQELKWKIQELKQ

T5: 4H3010-bN
T5 chain: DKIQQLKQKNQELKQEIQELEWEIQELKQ

T6: 4H3112-bN
T6 chain: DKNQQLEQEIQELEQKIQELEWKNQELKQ

T7: 4H3427-bN
T7 chain: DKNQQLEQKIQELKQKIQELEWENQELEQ

T8: 4H346-bN
T8 chain: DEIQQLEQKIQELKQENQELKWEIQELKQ

T9: 4H3628-bH
T9 chain: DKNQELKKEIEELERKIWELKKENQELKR

T10: 4H3926-bN
T10 chain: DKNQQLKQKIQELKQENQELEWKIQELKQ

T11: 4H4073-bN
T11 chain: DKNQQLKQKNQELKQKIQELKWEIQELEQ

T12: 4H457-bN
T12 chain: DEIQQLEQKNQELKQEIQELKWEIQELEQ

T13: 4H575-bN
T13 chain: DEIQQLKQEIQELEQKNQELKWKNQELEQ

T14: 4H683-bN
T14 chain: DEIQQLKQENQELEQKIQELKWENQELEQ

T15: 4H754-bN
T15 chain: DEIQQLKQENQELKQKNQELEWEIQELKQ

T16: 4H780-bN
T16 chain: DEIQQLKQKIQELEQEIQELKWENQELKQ

T17: 4H797-bN
T17 chain: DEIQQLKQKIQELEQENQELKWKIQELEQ

T18: 4H855-bN
T18 chain: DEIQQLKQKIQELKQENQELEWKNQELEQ

T19: 4H918-bN
T19 chain: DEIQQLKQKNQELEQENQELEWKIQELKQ

T20: 4H953-bN
T20 chain: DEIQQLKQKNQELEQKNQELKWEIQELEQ

T21: 4H968-bN
T21 chain: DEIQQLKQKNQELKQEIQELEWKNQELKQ

T22: 4H_BCR
T22 chain: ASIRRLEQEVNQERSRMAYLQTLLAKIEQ

T23: AP1-AA
T23 chain: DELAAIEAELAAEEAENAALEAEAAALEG

T24: AP2-AA
T24 chain: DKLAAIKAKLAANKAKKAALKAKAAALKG

T25: AP3-AA
T25 chain: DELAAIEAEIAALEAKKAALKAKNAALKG

T26: AP4-AA
T26 chain: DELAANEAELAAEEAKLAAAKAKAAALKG

T27: AP5-AA
T27 chain: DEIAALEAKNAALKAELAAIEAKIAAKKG

T28: AP6-AA
T28 chain: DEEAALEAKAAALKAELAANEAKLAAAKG

T29: AP7-AA
T29 chain: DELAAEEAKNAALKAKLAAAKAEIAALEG

T30: AP8-AA
T30 chain: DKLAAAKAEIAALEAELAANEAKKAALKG

T31: P1-AA
T31 chain: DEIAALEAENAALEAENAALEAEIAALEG

T32: P10-AA
T32 chain: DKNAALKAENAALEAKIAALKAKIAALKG

T33: P11-AA
T33 chain: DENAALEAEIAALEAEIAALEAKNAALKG

T34: P12-AA
T34 chain: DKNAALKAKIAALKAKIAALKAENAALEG

T35: P2-AA
T35 chain: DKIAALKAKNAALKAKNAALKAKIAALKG

T36: P3-AA
T36 chain: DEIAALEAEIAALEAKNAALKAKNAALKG

T37: P4-AA
T37 chain: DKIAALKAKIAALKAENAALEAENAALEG

T38: P7-AA
T38 chain: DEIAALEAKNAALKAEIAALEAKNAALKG

T39: P8-AA
T39 chain: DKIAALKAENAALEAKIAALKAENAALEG

T40: P9-AA
T40 chain: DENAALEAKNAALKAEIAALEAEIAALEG

T41: 4H3189-bA
T41 chain: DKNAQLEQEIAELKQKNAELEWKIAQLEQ

T42: 4H883-bH
T42 chain: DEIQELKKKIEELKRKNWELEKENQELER


How the values were obtained:
4H2586-bN = target: T1, 4H2586-bN; assay: two-hybrid library CCNG1;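 also: natural log of median RNA to DNA barcode read ratio; higher means stronger binding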
4H2627-bN = target: T2, 4H2627-bN; assay: two-hybrid library CCNG1;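 also: natural log of median RNA to DNA barcode read ratio; higher means stronger binding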
4H2673-bN = target: T3, 4H2673-bN; assay: two-hybrid library CCNG1;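 also: natural log of median RNA to DNA barcode read ratio; higher means stronger binding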
4H2702-bN = target: T4, 4H2702-bN; assay: two-hybrid library CCNG1;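 also: natural log of median RNA to DNA barcode read ratio; higher means stronger binding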
4H3010-bN = target: T5, 4H3010-bN; assay: two-hybrid library CCNG1;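 also: natural log of median RNA to DNA barcode read ratio; higher means stronger binding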
4H3112-bN = target: T6, 4H3112-bN; assay: two-hybrid library CCNG1;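 also: natural log of median RNA to DNA barcode read ratio; higher means stronger binding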
4H3427-bN = target: T7, 4H3427-bN; assay: two-hybrid library CCNG1
4H346-bN = target: T8, 4H346-bN; assay: two-hybrid library CCNG1
4H3628-bH = target: T9, 4H3628-bH; assay: two-hybrid library CCNG1
4H3926-bN = target: T10, 4H3926-bN; assay: two-hybrid library CCNG1
4H4073-bN = target: T11, 4H4073-bN; assay: two-hybrid library CCNG1
4H457-bN = target: T12, 4H457-bN; assay: two-hybrid library CCNG1
4H575-bN = target: T13, 4H575-bN; assay: two-hybrid library CCNG1
4H683-bN = target: T14, 4H683-bN; assay: two-hybrid library CCNG1
4H754-bN = target: T15, 4H754-bN; assay: two-hybrid library CCNG1
4H780-bN = target: T16, 4H780-bN; assay: two-hybrid library CCNG1
4H797-bN = target: T17, 4H797-bN; assay: two-hybrid library CCNG1
4H855-bN = target: T18, 4H855-bN; assay: two-hybrid library CCNG1
4H918-bN = target: T19, 4H918-bN; assay: two-hybrid library CCNG1
4H953-bN = target: T20, 4H953-bN; assay: two-hybrid library CCNG1
4H968-bN = target: T21, 4H968-bN; assay: two-hybrid library CCNG1
4H_BCR = target: T22, 4H_BCR; assay: two-hybrid library CCmax
AP1-AA = target: T23, AP1-AA; assay: two-hybrid library CCmax
AP2-AA = target: T24, AP2-AA; assay: two-hybrid library CCmax
AP3-AA = target: T25, AP3-AA; assay: two-hybrid library CCmax
AP4-AA = target: T26, AP4-AA; assay: two-hybrid library CCmax; conditions: mean of both orientations
AP5-AA = target: T27, AP5-AA; assay: two-hybrid library CCmax
AP6-AA = target: T28, AP6-AA; assay: two-hybrid library CCmax
AP7-AA = target: T29, AP7-AA; assay: two-hybrid library CCmax
AP8-AA = target: T30, AP8-AA; assay: two-hybrid library CCmax
P1-AA = target: T31, P1-AA; assay: two-hybrid library CCmax
P10-AA = target: T32, P10-AA; assay: two-hybrid library CCmax
P11-AA = target: T33, P11-AA; assay: two-hybrid library CCmax
P12-AA = target: T34, P12-AA; assay: two-hybrid library CCmax
P2-AA = target: T35, P2-AA; assay: two-hybrid library CCmax
P3-AA = target: T36, P3-AA; assay: two-hybrid library CCmax
P4-AA = target: T37, P4-AA; assay: two-hybrid library CCmax
P7-AA = target: T38, P7-AA; assay: two-hybrid library CCmax
P8-AA = target: T39, P8-AA; assay: two-hybrid library CCmax
P9-AA = target: T40, P9-AA; assay: two-hybrid library CCmax
4H3189-bA = target: T41, 4H3189-bA; assay: two-hybrid library CCNG1
4H883-bH = target: T42, 4H883-bH; assay: two-hybrid library CCNG1
GCN2_T = assay: two-hybrid library CCmax

Row | Binder | interaction score (4H2627-bN) | interaction score (4H2673-bN) | interaction score (4H2702-bN) | interaction score (4H3010-bN) | interaction score (4H3112-bN) | interaction score (4H3427-bN) | interaction score (4H346-bN) | interaction score (4H3926-bN) | interaction score (4H4073-bN) | interaction score (4H457-bN) | interaction score (4H575-bN) | interaction score (4H683-bN) | interaction score (4H754-bN) | interaction score (4H780-bN) | interaction score (4H797-bN) | interaction score (4H855-bN) | interaction score (4H918-bN) | interaction score (4H953-bN) | interaction score (4H968-bN) | interaction score (AP4-AA) | other results
1 | DKIQQLKQEIQELEQENQELKWEIQELKQ [4H2586-bN] | -0.115 | -1.47 | -0.448 | 0.0264 | -1.32 | 0.526 | 1.97 | 0.209 | -0.362 | -0.912 | -1.1 | 0.147 | -1.88 | -1.16 | -0.469 | -0.916 | -1.12 | -1.01 | -1.31 |  | interaction score (4H2586-bN): 0.806; interaction score (4H3628-bH): 1.41
2 | DKIQQLKQEIQELKQEIQELEWENQELEQ [4H2627-bN] | -1.18 | -0.336 | -0.837 | -0.478 | -0.418 | -0.336 | -1.49 | -0.972 | 0.24 | -1.44 | 0.336 | -0.185 | -1.21 | -0.619 | -2.2 | -0.307 | -0.935 | -1.1 | -0.499 |  | interaction score (4H3189-bA): -2.27; interaction score (4H883-bH): 0.737

More lines, main results first:

Row | interaction score (4H2627-bN) | interaction score (4H2673-bN) | interaction score (4H2702-bN) | interaction score (4H3010-bN) | interaction score (4H3112-bN) | interaction score (4H3427-bN) | interaction score (4H346-bN) | interaction score (4H3926-bN) | interaction score (4H4073-bN) | interaction score (4H457-bN) | interaction score (4H575-bN) | interaction score (4H683-bN) | interaction score (4H754-bN) | interaction score (4H780-bN) | interaction score (4H797-bN) | interaction score (4H855-bN) | interaction score (4H918-bN) | interaction score (4H953-bN) | interaction score (4H968-bN) | interaction score (AP4-AA) | Binder | other results
3 |  |  |  |  |  |  |  |  |  |  |  |  |  |  |  |  |  |  |  | -1.78 | KRLKQIEKRLQAKEWEKAQLRKELQALRK [4H_APH4] | interaction score (4H_BCR): -1.95; interaction score (AP1-AA; mean of both orientations): -1.81; interaction score (AP2-AA): -2.2; interaction score (AP3-AA): -1.44; interaction score (AP5-AA): -1.61; interaction score (AP6-AA): -2.8; interaction score (AP7-AA): -2.06; interaction score (AP8-AA): -1.39; interaction score (P1-AA): -2.2; interaction score (P10-AA): -1.38; interaction score (P11-AA): -1.36; interaction score (P12-AA): -2.07; interaction score (P2-AA): -1.88; interaction score (P3-AA): -1.05; interaction score (P4-AA): -2.31; interaction score (P7-AA): -1.7; interaction score (P8-AA): -2.2; interaction score (P9-AA): -1.79
4 |  |  |  |  |  |  |  |  |  |  |  |  |  |  |  |  |  |  |  | -1.14 | DELAAIEAELAAEEAENAALEAEAAALEG [AP1-AA] | interaction score (AP1-AA): -1.8; interaction score (AP2-AA; mean of both orientations): -1.59; interaction score (AP3-AA; mean of both orientations): -1.43; interaction score (AP5-AA; mean of both orientations): -1.52; interaction score (AP6-AA; mean of both orientations): -2.13; interaction score (AP7-AA; mean of both orientations): -1.41; interaction score (AP8-AA; mean of both orientations): -1.34; interaction score (GCN2_T): -2.11; interaction score (P1-AA; mean of both orientations): -1.54; interaction score (P10-AA; mean of both orientations): -1.61; interaction score (P11-AA; mean of both orientations): -1.38; interaction score (P12-AA; mean of both orientations): -1.66; interaction score (P2-AA; mean of both orientations): 0.117; interaction score (P3-AA): -1.19; interaction score (P4-AA; mean of both orientations): -1.4; interaction score (P7-AA; mean of both orientations): -1.65; interaction score (P8-AA; mean of both orientations): -1.49; interaction score (P9-AA; mean of both orientations): -1.77
